Measurements as given in patent US6156546 (Washington State University Research Foundation, dated 2000).

Legend:
[1] = biological target: Human plasma fibronectin (human) (UniProt P02751); test: soluble 125I-Fn bound to untreated whole C. jejuni, gamma counting
Human plasma fibronectin = Human plasma fibronectin (human, UniProt P02751-8, 125I-labelled (Iodogen method) or biotinylated (sulfo-NHS-biotin) in the ligand blots and the soluble binding assay; unlabelled when immobilised on coverslips); test: ligand blot with 125I-labeled Fn

Work on “C. jejuni whole bacteria (isolate not stated) in the soluble 125I-Fn assay (cells without a defined receptor)” yielded a ng Fn bound [1] of 380 ng.

B1: CadF protein of Campylobacter coli M275 (other)
chain: ADNNVKFEITPTLNHNYFEGNLDMDNRYAPGIRLGYHFDDFWLDQLELGLEHYSDVKYTNSTLTTDITRTYLSAIKGIDLGEKFYFYGLAGGGYEDFSKGAFDNKSGGFGHYGAGLKFRLSDSLALRLETRDQISFHDADHSWVSTLGISFGFGAKREKVVAEQVKEVAIEPRVAVPTQSQCPAEPREGAMLDENGCEKTISFEGHFGFDKVDINPAFEEKIKEIAQLLDENARYDTILEGHTDNIGSRAYNQKLSERRAESVAKELEKFGVDKDRIQTVGYGQDKPRSRNETKEGRADNRRVDAKFILR
B1: binds (Human plasma fibronectin).
